B1: full-length recombinant human endostatin (protein, UniProt P39060 1572-1754, looked up)
Endostatin: HSHRDFQPVLHLVALNSPLSGGMRGIRGADFQCFQQARAVGLAGTFRAFLSSRLQDLYSIVRRADRAAVPIVNLKDELLFPSWEALFSGSEGPLKPGARIFSFDGKDVLRHPTWPQKSVWHGSDPNGRRLTESYCETWRTEAPSATGQASSLLGGRLLGQSAASCHHAYIVLCIENSFMTASK
modifications: Endostatin
notes: full-length recombinant human endostatin purchased from Sigma-Aldrich
B2: ENDSTAR: recombinant human endostatin purified from E. coli containing an additional nine-amino acid sequence, his-tagged; approved for non-small-cell lung cancer in China (protein, UniProt P39060 1572-1754, looked up)
Endostatin: HSHRDFQPVLHLVALNSPLSGGMRGIRGADFQCFQQARAVGLAGTFRAFLSSRLQDLYSIVRRADRAAVPIVNLKDELLFPSWEALFSGSEGPLKPGARIFSFDGKDVLRHPTWPQKSVWHGSDPNGRRLTESYCETWRTEAPSATGQASSLLGGRLLGQSAASCHHAYIVLCIENSFMTASK
modifications: Endostatin additional nine-residue His tag
notes: approved for non-small-cell lung cancer in China

Assays:
[1] = tested on: human primary lung fibroblasts; experiment: FN and Col1α1 western blot in TGF-β-treated primary lung fibroblasts; assay type: cell-based; settings: normal human lung fibroblasts; TGF-β 10 ng/ml 24 h, then 5 μg/ml rE or peptide 48 h; vs TGF-β alone
Protocol: (§1) Human primary lung and skin fibroblasts were cultured. The explanted lungs of normal organ donors, patients with SSc or IPF, and clinically involved skin of SSc patients, a morphea patient and healthy donors were used for primary fibroblast culture. Approximately 2-cm pieces of peripheral lung and skin were minced and fibroblasts were cultured in Dulbecco's modified Eagle's medium (DMEM; Mediatech, Herndon, Va.) supplemented with 10% FBS, penicillin, streptomycin, and anti-mycotic agent, as previously described (Feghali et al., Arthritis Rheum 1999; 42:1451-7). All the cells were used between passages 3-6.
Cellular lysates were obtained from cultured fibroblasts as previously described (Pilewski et al., Am J Pathol 2005; 166:399-407). Briefly, 2.0×10^5 primary fibroblasts were cultured in 35-mm wells in 0.5% FBS-containing medium supplemented with 10 ng/ml of human recombinant TGF-β or PBS as vehicle control for 24 h, following which 5 μg/ml of human rE, endostatin peptides (E1-E4), or DMSO (vehicle) was added for 48 h. In some experiments, endostatin peptides were used without TGF-β stimulation. Cellular lysates were analyzed by western blot. Signals were detected following incubation with horseradish peroxidase-conjugated secondary antibody and chemiluminescence (Perkin Elmer Life Sciences, Inc., Boston, Mass.). The intensity of individual bands with expected molecular sizes was semi-quantitatively analyzed using the image/J® software available at on the internet (/rsb.info.nih.gov/ij/index.html), and normalized to individual GAPDH intensity.
To evaluate whether endostatin modulates production of ECM components in fibroblasts, FN and Col1α1 expression was examined in normal human lung fibroblasts by western blot analysis. Cells were treated with 5 µg/ml rE for 48 h with or without pre-stimulation with human TGF-β for 24 h. […] To define the functional domain of endostatin that mediates its inhibitory effect, four different peptides were synthesized corresponding to different regions of endostatin (Table 1).

mouse skin = experiment: TGF-β-induced dermal fibrosis in vivo in mouse skin; settings: mice, intradermal, 10 μg/ml with TGF-β 10 ng/ml, one week post-injection
Protocol: FIG. 9. E4 reverses TGF β-induced dermal fibrosis even if administered 3 days following TGF-β.
CB57BL6/J male mice were purchased from The Jackson Laboratory (Bar Harbor, Me.). Human rE (10 μg/ml) or Endostatin peptides (10 μg/ml) in combination with TGF-β (10 ng/ml), or TGF-β alone were injected intradermally on the back of mice in a total volume of 100 μl 1×PBS. Mice were injected in two different skin sites and sacrificed one week post-injection. Skin surrounding the injection site was harvested and fixed in 10% formalin prior to embedding in paraffin.
(§2) Six μm sections of paraffin-embedded human and mouse skin tissues were stained with hematoxylin and eosin (H&E). In some experiments, sections were stained with Masson trichrome which identifies collagens. Images were taken on a Nikon Eclipse 800 microscope. The thickness of the dermis was measured in 6 random fields of each section using the image/J® software. Data are shown in arbitrary units.
E4, a peptide representing the carboxy terminus of human endostatin, can attenuate fibrosis triggered by multiple fibrogenic factors. The anti-fibrotic effects of E4 can be detected whether administered concomitantly with or following the fibrogenic trigger. The efficacy of E4 was confirmed in […] pre-clinical models of fibrosis: a) bleomycin-induced dermal fibrosis in vivo in mouse skin, b) TGF-β induced dermal fibrosis in mouse skin, and c) bleomycin-induced pulmonary fibrosis. E4 peptide or a control peptide (E1; representing the amino terminal region of endostatin) were administered at the same time as TGF-β or bleomycin or 3-4 days following TGF-β or bleomycin. Mice were sacrificed one and two weeks after TGF-β-initiation of dermal fibrosis, and two and three weeks after bleomycin-induced pulmonary fibrosis. Two different modes of administration of the E4 peptide were also tested. It was confirmed that intraperitoneal and intratracheal administration was effective. The amount of E4 that was administered ws 10 μg/ml in a total volume of 100 μl for skin and IP injections and 50 μl for IT administration.

human skin explants = experiment: Ex vivo human skin fibrosis organ culture, dermal thickness; assay type: cell-based; settings: for dermal thickness, baseline effect: injected alone without TGF-β, rE 1, 5, 10 μg/ml, peptides 10 μg/ml
Protocol: Human abdominal skin was obtained from corrective plastic surgery. As previously described (Yasuoka et al., The Open Rheumatol J 2008; 2:17-22), subcutaneous fat tissue was removed uniformly and skin tissue was cut into 1.5 cm×1.5 cm sections. The following were injected intradermally in a total volume of 100 μl 1×PBS: rE alone (1-10 μg/ml), endostatin peptides alone (10 μg/ml), rE or endostatin peptides (1-20 μg/ml) in combination with TGF-β (10 ng/ml), and TGF-β alone (10 ng/ml). In some experiments, human skin was first injected with TGF-β for 48 h followed by recombinant endostain (rE) administration in the same injection site as TGF-β. Explants containing complete epidermal and dermal layers were cultured in an air liquid interface with the epidermal and keratin layers side up and exposed to air. The culture medium was replaced every other day. After 1 or 2 weeks, skin tissue corresponding to an area with 8-mm diameter centered around the injection site was harvested using disposable 8-mm Acu Punch® (Acuderm inc., Lauderdale, Fla.). Skin tissue was fixed in 10% formalin prior to embedding in paraffin.
as §2

[2] = tested on: human primary skin fibroblasts; experiment: TGF-β-induced ECM production in primary skin (dermal) fibroblasts, western blot; assay type: cell-based; settings: dermal fibroblasts from healthy controls, SSc or morphea patients
Protocol: as §1
Cellular lysates were obtained from cultured fibroblasts as previously described (Pilewski et al., Am J Pathol 2005; 166:399-407). […] Cellular lysates were analyzed by western blot. Signals were detected following incubation with horseradish peroxidase-conjugated secondary antibody and chemiluminescence (Perkin Elmer Life Sciences, Inc., Boston, Mass.). The intensity of individual bands with expected molecular sizes was semi-quantitatively analyzed using the image/J® software available at on the internet (/rsb.info.nih.gov/ij/index.html), and normalized to individual GAPDH intensity. […]

[3] = tested on: Human umbilical vein endothelial cells (HUVECs); experiment: Tubular formation assay in Matrigel; assay type: cell-based; settings: 50 nM, 24 hours
Protocol: The ability of endostatin peptide to inhibit angiogenesis was examined in tubular formation assay using Matrigel® culture. Human umbilical vein endothelial cells (HUVECs) were maintained in endothelial cell basal medium-2 (EBM-2; Clonetics, San Diego, Calif.) supplemented with EBM-2 MV SingleQuots®. HUVECs (5×10^4) were cultured in duplicate on 24-well Matrigel® plates (BD Biosciences, San Diego, Calif.) alone, or in the presence of rE or E4 peptide (50 nM) in EBM-2 at 37° C. DMSO was used as vehicle control. After 24 hours, images were captured using a […] microscope. The degree of cord formation was quantified by measuring the area occupied by tubes in 6 random fields per well. Three independent experiments were performed.

[4] = cited from earlier work

| Molecule | FN and Col1α1 levels/production [1] | TGF-β-induced dermal fibrosis (dermal thickness) (mouse skin) | dermal thickness, baseline effect (human skin explants) | other results |
| --- | --- | --- | --- | --- |
| H-^1HSHRDFQPVLHLVALNSPLSGGMRGIRGADFQCFQQARAVGLAGT^45-OH (H-HSHRDFQPVLHLVALNSPLSGGMRGIRGADFQCFQQARAVGLAGT-OH; UniProt P39060 1572-1616, looked up, fragment) [E1, human endostatin fragment, amino acids 1-45; amino terminal control peptide] | had no effect | did not alter | – | – |
| H-^71IVNLKDELLFPSWEALFSGSEGPLKPGARIFSFDGKDVLRHPTWP^115-OH (H-IVNLKDELLFPSWEALFSGSEGPLKPGARIFSFDGKDVLRHPTWP-OH; UniProt P39060 1642-1686, looked up, fragment) [E2, human endostatin fragment, amino acids 71-115] | – | significantly reduced | – | – |
| H-^133SYCETWRTEAPSATGQASSLLGGRLLGQSAASCHHAYIVLCIENSFMT^180-OH (H-SYCETWRTEAPSATGQASSLLGGRLLGQSAASCHHAYIVLCIENSFMT-OH; cysteine pairing not given here; UniProt P39060 1704-1751, looked up, fragment) [E3, human endostatin fragment, amino acids 133-180] | – | prevented | tendency towards reduction | development of fibrosis as measured by dermal thickness (human skin explants; peptides 10 μg/ml with TGF-β 10 ng/ml, vs TGF-β alone): significantly abolished |
| B1 | dramatically reduced | – | tendency towards reduction | TGF-β-induced dermal fibrosis, delayed treatment (human skin explants; injected 2 days after TGF-β administration): significantly ameliorated; dermal thickness (human skin explants; rE 1, 5, 10 μg/ml injected simultaneously with TGF-β 10 ng/ml, one week, dose-dependent): significantly reduced; TGF-β-induced ECM production (FN, Col1α1) [2]: reduced; inhibition of tubular structure formation [3]: significant |
| B2 | – | – | – | half-life [4]: short |

— patent publication US10709769B2, “Use of endostatin peptides for the treatment of fibrosis” (University of Pittsburgh—Of the Commonwealth System of …, priority 2009, dated 2020)
